Measured values from patent US20150183871A1 (AbbVie / Abbott, published 2015).

Columns and labels:
[1] = molecular target: T1, recombinant purified human RGM A (human, UniProt Q96B86 48-424, limits assumed); experiment: direct ELISA, plate coated with hRGM A at 2 µg/ml, biotinylated antibody in 1:5 dilution steps, streptavidin-HRP, OD 450 nm
T1 construct: Bought recombinant protein (R&D Systems); also called hRGM A; hRGMA
T1 sequence: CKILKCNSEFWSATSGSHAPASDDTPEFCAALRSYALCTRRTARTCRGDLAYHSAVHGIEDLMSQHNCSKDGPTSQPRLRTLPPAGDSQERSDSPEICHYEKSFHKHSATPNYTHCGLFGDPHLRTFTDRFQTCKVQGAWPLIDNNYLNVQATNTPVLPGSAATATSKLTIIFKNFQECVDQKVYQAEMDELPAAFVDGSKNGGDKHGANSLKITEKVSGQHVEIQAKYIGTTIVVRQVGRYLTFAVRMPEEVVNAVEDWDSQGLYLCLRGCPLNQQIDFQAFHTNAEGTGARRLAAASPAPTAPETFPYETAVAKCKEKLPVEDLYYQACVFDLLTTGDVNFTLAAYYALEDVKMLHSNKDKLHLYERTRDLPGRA
Method: (i) Direct binding ELISA plates were coated with hRGM A (R&D) at a concentration of 2 μg/ml in Carbonate buffer. The wells were then blocked with 2% Blocking solution (Bio-Rad) for 1 hour at room temperature. Biotinylated antibodies were serially diluted with a 1:5 dilution factor in 0.1% BSNPBS down the plate and incubated for 1 hour at room temperature. The detection reagent was a 1:10,000 dilution of streptavidin-HRP in 0.1% BSNPBS. Detection was done with a TMB reagent, which was stopped with 2N H₂SO₄ and OD was read at 450 nm.
(§1) FAGS was carried out as described in section (ii).

[2] = molecular target: T2, fc-coupled full length human RGM A (47-422) (human); experiment: competition ELISA: fc-conjugated full length hRGM A (0.5 µg/ml) binding to coated BMP-2
T2 construct: the legends call the protein fc-coupled full length hRGM A fragment (47-422, counted on hRGM A); also called full length fc-conjugated hRGM A; Human RGM A-fc
T2 sequence (chain, as listed by the source): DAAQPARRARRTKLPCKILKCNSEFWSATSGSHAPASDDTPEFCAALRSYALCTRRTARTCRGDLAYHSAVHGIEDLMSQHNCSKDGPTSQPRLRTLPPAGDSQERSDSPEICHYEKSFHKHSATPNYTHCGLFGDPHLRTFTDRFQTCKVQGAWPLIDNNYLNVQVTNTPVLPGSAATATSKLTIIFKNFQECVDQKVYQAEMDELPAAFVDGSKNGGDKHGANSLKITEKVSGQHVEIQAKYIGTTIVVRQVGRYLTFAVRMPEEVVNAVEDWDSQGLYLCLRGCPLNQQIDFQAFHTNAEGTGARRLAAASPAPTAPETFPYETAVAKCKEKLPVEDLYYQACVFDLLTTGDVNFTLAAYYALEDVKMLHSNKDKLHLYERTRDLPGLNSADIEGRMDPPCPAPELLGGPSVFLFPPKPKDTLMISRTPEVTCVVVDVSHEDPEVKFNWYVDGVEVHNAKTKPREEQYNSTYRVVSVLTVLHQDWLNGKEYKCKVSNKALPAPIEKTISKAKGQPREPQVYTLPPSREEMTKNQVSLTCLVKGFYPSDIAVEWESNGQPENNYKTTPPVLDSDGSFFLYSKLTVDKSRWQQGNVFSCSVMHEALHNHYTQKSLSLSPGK
Method: After the incubation, unbound BMP-2 was removed in 3 separate wash steps with PBS containing 0.02% Tween 20. Blocking of the BMP-2 coated plates was done by adding 2001-JI per well of a 3% Bovine serum albumin (BSA), PBS, Tween 20(0.02%) blocking solution. After incubation for 1 h at 37° C., the blocking solution was removed and RGM A fragments or full length protein, conjugated with a human fc tag, with or without antibody, was added. In some experiments antibodies were preincubated with the fc-conjugated hRGM A proteins for 1 h at room temperature. The BMP-2 coated plates were incubated with hRGM A with or without antibodies for 1 hat 37° C. After 3 wash steps with PBS-Tween 20 (0.02%), plates were incubated with a Biotin-labeled anti-human fc antibody (1 mg/ml, diluted 1:200 in PBS containing 0.6% BSA, 0.02% Tween 20), Jackson ImmunoResearch catalog no: 709-065-149, for 1 h at 37° C. Unbound antibody was removed by 3 wash steps with PBS-Tween 20 (0.02%). […] Unbound Peroxidase-complex was removed in 3 subsequent wash steps (PBS-Tween 20 (0.02%) before adding the Peroxidase substrate (Immuno Pure TMB, Pierce#34021). The substrate reaction was stopped 1-30 min after its addition to the wells by 2.5 M H2SO4. Plates were analysed (OD determination) at a wave length of 450 nm using an Anthos photometer. […]

[3] = molecular target: T3, fc-coupled human RGM A light chain, fragment 0 (47-168) (human); experiment: direct ELISA on hRGMA 47-168/HuIgGFc
T3 construct: also called hRGM A light chain - fc; hRGMA 47-168/HuIgGFc
T3 sequence (chain, as listed by the source): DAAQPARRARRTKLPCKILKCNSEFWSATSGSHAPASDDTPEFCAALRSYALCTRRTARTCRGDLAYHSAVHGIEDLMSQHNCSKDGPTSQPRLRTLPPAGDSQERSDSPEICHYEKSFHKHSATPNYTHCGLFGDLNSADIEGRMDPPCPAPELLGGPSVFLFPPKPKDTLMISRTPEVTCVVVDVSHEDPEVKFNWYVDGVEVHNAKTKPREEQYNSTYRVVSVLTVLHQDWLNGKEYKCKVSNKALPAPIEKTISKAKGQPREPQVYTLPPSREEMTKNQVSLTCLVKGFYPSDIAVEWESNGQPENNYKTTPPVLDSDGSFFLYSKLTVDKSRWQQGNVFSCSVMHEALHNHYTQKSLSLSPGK

[4] = molecular target: T4, recombinant rat RGM A (rat); experiment: direct ELISA on rRatRGMA
T4 construct: also called rRatRGMA
T4 chain: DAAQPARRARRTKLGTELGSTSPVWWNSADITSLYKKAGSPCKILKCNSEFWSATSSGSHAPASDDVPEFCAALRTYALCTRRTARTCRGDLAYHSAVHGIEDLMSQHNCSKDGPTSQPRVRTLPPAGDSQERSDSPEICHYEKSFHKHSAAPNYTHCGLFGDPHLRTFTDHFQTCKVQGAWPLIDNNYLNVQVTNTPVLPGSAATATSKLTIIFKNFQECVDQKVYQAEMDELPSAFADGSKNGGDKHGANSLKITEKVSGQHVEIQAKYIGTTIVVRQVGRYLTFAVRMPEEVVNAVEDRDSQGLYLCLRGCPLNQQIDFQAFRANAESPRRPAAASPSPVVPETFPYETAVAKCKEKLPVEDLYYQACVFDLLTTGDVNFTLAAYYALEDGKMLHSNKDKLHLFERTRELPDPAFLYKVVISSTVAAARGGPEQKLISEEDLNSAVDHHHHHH

[5] = molecular target: T5, rat RGM A overexpressed on cells (BAF3 cells) (rat); experiment: FACS on BAF3-ratRGMA stable cell line, anti-rat IgG PE
T5 construct: also called BAF3 cells overexpressing ratRGM A
T5 chain: T4 chain
Method: (ii) FACS analysis. Stable transfectants of HEK293 cells overexpressing hRGM A or BAF3 cells overexpressing ratRGM A were subjected to staining with unlabelled 5F9 or 8D1 MABs for more than 15 minutes at 4° in 0.1% BSNPBS buffer. Detection was carried out with a mouse anti-rat IgG PE antibody.
as §1

- EC50 (read off the curve) [1]: ~0.2 µg/mL
- binding result [2]: binds
- binding result [3]: binds
- binding result [4]: no binding
- binding result [5]: no binding
B1: rat anti-human RGM A monoclonal antibody 8D1 (antibody, V domains shown)
VH: EVQLQQSGPELVKPGTSVKMSCKTSGYTFTSYVMHWVKQKPGQGLEWIGYIIPYNDNTKYNEKFKGKATLTSDKSSSTAYMELSSLTSEDSAVYYCARRNEYYGSSFFDYWGQGTTLTVSS
VL: DIQMTQSPASLSASLEEIVTITCQASQDIDNYLAWYHQKPGKSPRLLIYGATNLADGVPSRFSGSRSGTQFSLKINRLQIEDLGIYYCLQGYIPPRTFGGGTKLELKR
notes: Rat hybridoma antibody; also called ML68-8D1; MAB 8D1
